Results as given in publication PMC12065890.

How the values were obtained:
[1] = molecular target: full-length Amh (SPR protein) (zebrafish); assay: SPR
[2] = molecular target: Amh C-terminal domain (SPR protein) (zebrafish); assay: SPR

In the case of “Bmpr2a domain protein (protein kinase domain of Bmpr2a, SPR protein) (domain or fragment)”, the Kd [1] is reported as 116 nM and the Kd [2] is reported as 1390 nM.
